Literature values, collected in PMC10466379.

Columns and labels:
Assay in all cases: not stated (values taken from the PKAD database; the article says PKAD values come mainly from NMR or IR titrations)
Conditions in all cases: not stated (the curated set excludes proteins with ligands, nucleic acids and structural metal ions)
Glu90 = Glu90 (UniProt position 172, YGRGLEYIYAD)
Glu132 = Glu132 (UniProt position 214, KSEAQEKKEKL)
Glu34 = Glu34 (UniProt position 116, GQPMTERLLLV)
Glu20 = Glu20 (UniProt position 102, IKAIDEDTVKL)
Glu72 = Glu72 (UniProt position 154, ENAKKEEVEFD)
Glu25 = Glu25 (UniProt position 107, GDTVKEMYKGQ)
Glu37 = Glu37 (UniProt position 119, MTFRLELVDTP)
Glu38 = Glu38 (UniProt position 120, TFRLLEVDTPE)
Glu100 = Glu100 (UniProt position 182, DGKMVEEALVR)
Glu118 = Glu118 (UniProt position 200, YVYKPENTHEQ)
Glu41 = Glu41 (UniProt position 123, LLLVDEPETKH)
Glu62 = Glu62 (UniProt position 144, EASAFEKKMVE)
Glu23 = Glu23 (UniProt position 105, IDGDTEKLMYK)
Glu91 = Glu91 (UniProt position 173, GRGLAEIYADG)

Q: With “staphylococcal nuclease variant A90E (parent PDB 2LKV) (Staphylococcus aureus (inferred from PDB 2LKV; not stated in the article); A90E)” as the substance, how does the pKa (Glu90) read?
A: 6.4

Q: Which pKa (Glu132) does the source give for “staphylococcal nuclease variant A132E (parent PDB 2LKV) (Staphylococcus aureus (inferred from PDB 2LKV; not stated in the article); A132E)” here?
A: 7

Q: Which pKa (Glu34) does the source give for “staphylococcal nuclease variant F34E (parent PDB 2LKV) (Staphylococcus aureus (inferred from PDB 2LKV; not stated in the article); F34E)” here?
A: 7.3

Q: For “staphylococcal nuclease variant G20E (parent PDB 2LKV) (Staphylococcus aureus (inferred from PDB 2LKV; not stated in the article); G20E)”, which pKa (Glu20) is on record?
A: 4.5

Q: With “staphylococcal nuclease variant I72E (parent PDB 2LKV) (Staphylococcus aureus (inferred from PDB 2LKV; not stated in the article); I72E)” as the substance, how does the pKa (Glu72) read?
A: 7.3

Q: For “staphylococcal nuclease variant L25E (parent PDB 2LKV) (Staphylococcus aureus (inferred from PDB 2LKV; not stated in the article); L25E)”, which pKa (Glu25) is on record?
A: 7.5

Q: Which pKa (Glu37) does the source give for “staphylococcal nuclease variant L37E (parent PDB 2LKV) (Staphylococcus aureus (inferred from PDB 2LKV; not stated in the article); L37E)” here?
A: 5.2

Q: With “staphylococcal nuclease variant L38E (parent PDB 2LKV) (Staphylococcus aureus (inferred from PDB 2LKV; not stated in the article); L38E)” as the substance, how does the pKa (Glu38) read?
A: 6.8

Q: For “staphylococcal nuclease variant N100E (parent PDB 2LKV) (Staphylococcus aureus (inferred from PDB 2LKV; not stated in the article); N100E)”, which pKa (Glu100) is on record?
A: 7.6

Q: Which pKa (Glu118) does the source give for “staphylococcal nuclease variant N118E (parent PDB 2LKV) (Staphylococcus aureus (inferred from PDB 2LKV; not stated in the article); N118E)” here?
A: 4.5

Q: With “staphylococcal nuclease variant T41E (parent PDB 2LKV) (Staphylococcus aureus (inferred from PDB 2LKV; not stated in the article); T41E)” as the substance, how does the pKa (Glu41) read?
A: 6.8

Q: With “staphylococcal nuclease variant T62E (parent PDB 2LKV) (Staphylococcus aureus (inferred from PDB 2LKV; not stated in the article); T62E)” as the substance, how does the pKa (Glu62) read?
A: 7.7

Q: For “staphylococcal nuclease variant V23E (parent PDB 2LKV) (Staphylococcus aureus (inferred from PDB 2LKV; not stated in the article); V23E)”, which pKa (Glu23) is on record?
A: 7.1

Q: For “staphylococcal nuclease variant Y91E (parent PDB 2LKV) (Staphylococcus aureus (inferred from PDB 2LKV; not stated in the article); Y91E)”, which pKa (Glu91) is on record?
A: 7.1
